Experimental findings from US20030008291A1 (RIKEN, published 2003) are described below.

Experiment [1] has as its target T1, UvrA.
T1 construct: UvrA was the analyte in the BIAcore experiment
Kind of experiment: SPR (BIAcore), His-tagged β domain immobilised on Ni-NTA sensor chip, UvrA injected, with ATP (+ ATP). For orientation: In SPR one partner is held on a chip, and binding of the other changes the refractive index at the surface.

Experiment [2] concerns the target T1, UvrA. Nature of the experiment: SPR (BIAcore), His-tagged β domain immobilised on Ni-NTA sensor chip, UvrA injected, without ATP (- ATP).

B1: UvrB-β (enzyme)
chain: RNLVVERGKPYPREVLLERLLELGYQRNDIDLSPGRFRAKGEVLEIFPAYETEPIRVELFGDEVERISQVHPVTGERLRELPGFVLFPA
B1: in the experiment with UvrA [1], binding was put at a Kd of 0.4 µM, the koff worked out at 0.06 s⁻¹ and the association rate constant (kon) came out at 150000 M⁻¹ s⁻¹. In the experiment with UvrA [2], this molecule yielded a dissociation constant (Kd) of 2.6 µM, a koff of 0.52 s⁻¹ and an on-rate constant (kon) of 200000 M⁻¹ s⁻¹.

Broadly, the Kd is the constant that tells how readily two partners part at equilibrium. Low values mean tighter binding, high ones weaker binding. A word on the koff: it is the first-order rate constant of dissociation. Read a high koff as a short-lived complex. What is called kon is the second-order rate constant of association.
